Publication PMC6422423, “Constitutively active BRS3 is a genuinely orphan GPCR in placental mammals” (PLoS Biology, 2019)
pIC50, pKi: −log10 of the molar value.

How the values were obtained:
[1] = target: aardvark bombesin receptor subtype-3 (aardvark (Orycteropus afer)); assay: radioligand binding; displacement of 50 pM [125I]-Tyr-NMB by unlabeled peptide on disaggregated transfected HEK293 cells; 1 h at 21°C; 24.5 mM HEPES pH 7.4, 98 mM NaCl; bound tracer separated by centrifugation
[2] = target: chicken bombesin receptor subtype-3 (chicken (Gallus gallus)); assay: as above
[3] = target: turtle bombesin receptor subtype-3 (turtle (Chrysemys picta)); assay: as above
Chain of turtle bombesin receptor subtype-3 (turtle (Chrysemys picta)) (main, as listed by the source): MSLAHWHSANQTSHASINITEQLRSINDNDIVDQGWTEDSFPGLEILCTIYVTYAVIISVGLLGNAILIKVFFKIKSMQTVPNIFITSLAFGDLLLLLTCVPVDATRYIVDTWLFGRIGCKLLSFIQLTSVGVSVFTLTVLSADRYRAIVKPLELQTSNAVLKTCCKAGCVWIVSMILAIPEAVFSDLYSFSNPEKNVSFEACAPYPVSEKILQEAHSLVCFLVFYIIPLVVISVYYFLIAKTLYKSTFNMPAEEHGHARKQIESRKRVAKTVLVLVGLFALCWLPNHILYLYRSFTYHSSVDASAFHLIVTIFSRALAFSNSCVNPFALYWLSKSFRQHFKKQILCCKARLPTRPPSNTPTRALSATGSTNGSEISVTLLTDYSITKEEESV

[4] = target: spotted gar bombesin receptor subtype-3 (spotted gar (Lepisosteus oculatus)); assay: as above
Chain of spotted gar bombesin receptor subtype-3 (spotted gar (Lepisosteus oculatus)) (main, as listed by the source): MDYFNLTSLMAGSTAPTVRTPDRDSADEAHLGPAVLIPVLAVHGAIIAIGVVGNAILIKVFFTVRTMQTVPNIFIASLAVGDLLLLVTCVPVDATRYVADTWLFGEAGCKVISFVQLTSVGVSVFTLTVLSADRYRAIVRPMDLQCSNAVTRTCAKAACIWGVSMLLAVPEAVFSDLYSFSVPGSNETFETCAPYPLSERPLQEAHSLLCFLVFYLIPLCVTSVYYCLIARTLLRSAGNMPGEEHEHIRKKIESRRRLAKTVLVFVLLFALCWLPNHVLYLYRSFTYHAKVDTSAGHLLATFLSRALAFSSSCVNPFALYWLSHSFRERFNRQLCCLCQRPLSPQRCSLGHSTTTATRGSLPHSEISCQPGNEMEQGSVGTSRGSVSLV

[5] = target: chicken bombesin receptor subtype-3 (chicken (Gallus gallus)); assay: radioligand binding; displacement of 50 pM [125I]-Tyr42-GRP by unlabeled peptide on disaggregated transfected HEK293 cells; 1 h at 21°C; 24.5 mM HEPES pH 7.4, 98 mM NaCl; bound tracer separated by centrifugation
[6] = target: turtle bombesin receptor subtype-3 (turtle (Chrysemys picta)); assay: as above
[7] = target: spotted gar bombesin receptor subtype-3 (spotted gar (Lepisosteus oculatus)); assay: as above

Chain of aardvark bombesin receptor subtype-3 (aardvark (Orycteropus afer)) (P32247 other isoform, or with tags, fused parts or gaps): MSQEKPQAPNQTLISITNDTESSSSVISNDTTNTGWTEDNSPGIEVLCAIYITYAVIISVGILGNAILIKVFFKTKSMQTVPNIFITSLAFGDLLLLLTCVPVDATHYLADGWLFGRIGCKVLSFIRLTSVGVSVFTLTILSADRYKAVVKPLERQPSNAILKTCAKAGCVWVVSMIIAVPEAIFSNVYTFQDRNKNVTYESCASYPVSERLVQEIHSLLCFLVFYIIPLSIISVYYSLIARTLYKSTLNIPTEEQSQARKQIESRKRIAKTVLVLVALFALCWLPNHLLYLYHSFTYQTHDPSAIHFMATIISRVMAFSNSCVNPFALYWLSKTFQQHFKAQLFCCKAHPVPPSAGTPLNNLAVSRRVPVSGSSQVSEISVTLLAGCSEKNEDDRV

Substance: neuromedin B, unlabeled ligand peptide of the radioligand binding assays
- pKi [1]: < 6.00
- pIC50 [2]: 8.65
- pIC50 [3]: 8.55
- pIC50 [4]: 8.58
- pIC50 [5]: 8.87
- pIC50 [6]: 8.94
- pIC50 [7]: 8.76
